Test results published in paper PMC6007033.

How the values were obtained:
[1] = biological target: BG505.T332N.SOSIP.664.113C.431GCG gp140 trimer (HIV-1 BG505); test: SPR
[2] = biological target: BG505.T332N.SOSIP.664.113C.429GCG gp140 trimer (HIV-1 BG505); test: SPR

two-domain soluble CD4 (receptor)
reduction in binding affinity against the unmutated trimer [1]: 3 log | reduction in binding affinity against the unmutated trimer [2]: 3 log
